Measured values taken from publication PMC12183636, “Ion channel function of polycystin‐2/polycystin‐1 heteromer revealed by structure‐guided mutagenesis” (Febs Letters, 2025).

Molecular target: T1, polycystin-2 L677A N681A, HA-tagged (human, UniProt Q13563 1-968, L677A | N681A)
T1 sequence (looked up): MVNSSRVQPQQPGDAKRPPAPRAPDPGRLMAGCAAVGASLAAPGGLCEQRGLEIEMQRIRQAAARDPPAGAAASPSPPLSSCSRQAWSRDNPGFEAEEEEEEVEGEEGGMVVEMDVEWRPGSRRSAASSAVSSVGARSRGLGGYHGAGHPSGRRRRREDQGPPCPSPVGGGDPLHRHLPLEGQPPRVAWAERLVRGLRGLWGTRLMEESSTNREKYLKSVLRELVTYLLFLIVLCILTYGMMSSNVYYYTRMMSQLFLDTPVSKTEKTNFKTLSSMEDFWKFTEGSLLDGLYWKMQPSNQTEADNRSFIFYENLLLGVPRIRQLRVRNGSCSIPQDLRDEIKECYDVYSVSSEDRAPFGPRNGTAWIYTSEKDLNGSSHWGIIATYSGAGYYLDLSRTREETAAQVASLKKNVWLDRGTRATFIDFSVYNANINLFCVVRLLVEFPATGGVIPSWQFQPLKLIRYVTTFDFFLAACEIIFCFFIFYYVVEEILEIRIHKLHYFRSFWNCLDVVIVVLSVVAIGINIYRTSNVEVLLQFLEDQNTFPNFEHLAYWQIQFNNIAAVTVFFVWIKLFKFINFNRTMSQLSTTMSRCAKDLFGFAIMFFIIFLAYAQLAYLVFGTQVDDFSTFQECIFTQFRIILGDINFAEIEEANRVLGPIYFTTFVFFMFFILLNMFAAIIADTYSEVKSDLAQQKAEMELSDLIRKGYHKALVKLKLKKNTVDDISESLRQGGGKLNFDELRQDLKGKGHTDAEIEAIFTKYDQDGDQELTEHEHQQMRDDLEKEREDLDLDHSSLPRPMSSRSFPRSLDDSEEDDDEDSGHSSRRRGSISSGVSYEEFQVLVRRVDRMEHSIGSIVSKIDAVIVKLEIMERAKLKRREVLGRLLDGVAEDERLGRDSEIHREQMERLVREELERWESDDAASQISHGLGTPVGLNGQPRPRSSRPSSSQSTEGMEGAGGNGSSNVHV
Assay: cell-based or functional assay

PC2/PC1 molar ratio of injected cRNA (2.5 pmol PC2 AA, 0.77 pmol PC1-CTF AAA) at which the shift of the reversal potential saturated: 3.2 PC2 per PC1 (molar ratio of cRNA)
B1: C-terminal fragment of polycystin-1 R4100A R4107A H4111A (PC1-CTF AAA), V5-tagged (domain or fragment, human, UniProt P98161 3049-4303, looked up)
chain: TAFGASLFVPPSHVRFVFPEPTADVNYIVMLTCAVCLVTYMVMAAILHKLDQLDASRGRAIPFCGQRGRFKYEILVKTGWGRGSGTTAHVGIMLYGVDSRSGHRHLDGDRAFHRNSLDIFRIATPHSLGSVWKIRVWHDNKGLSPAWFLQHVIVRDLQTARSAFFLVNDWLSVETEANGGLVEKEVLAASDAALLRFRRLLVAELQRGFFDKHIWLSIWDRPPRSRFTRIQRATCCVLLICLFLGANAVWYGAVGDSAYSTGHVSRLSPLSVDTVAVGLVSSVVVYPVYLAILFLFRMSRSKVAGSPSPTPAGQQVLDIDSCLDSSVLDSSFLTFSGLHAEQAFVGQMKSDLFLDDSKSLVCWPSGEGTLSWPDLLSDPSIVGSNLRQLARGQAGHGLGPEEDGFSLASPYSPAKSFSASDEDLIQQVLAEGVSSPAPTQDTHMETDLLSSLSSTPGEKTETLALQRLGELGPPSPGLNWEQPQAARLSRTGLVEGLRKRLLPAWCASLAHGLSLLLVAVAVAVSGWVGASFPPGVSVAWLLSSSASFLASFLGWEPLKVLLEALYFSLVAKRLHPDEDDTLVESPAVTPVSARVPRVRPPHGFALFLAKEEARKVKRLHGMLRSLLVYMLFLLVTLLASYGDASCHGHAYRLQSAIKQELHSRAFLAITRSEELWPWMAHVLLPYVHGNQSSPELGPPRLRQVRLQEALYPDPPGPRVHTCSAAGGFSTSDYDVGWESPHNGSGTWAYSAPDLLGAWSWGSCAVYDSGGYVQELGLSLEESRDRLRFLQLHNWLDNRSRAVFLELTRYSPAVGLHAAVTLRLEFPAAGRALAALSVRPFALRRLSAGLSLPLLTSVCLLLFAVHFAVAEARTWHREGRWRVLRLGAWARWLLVALTAATALVRLAQLGAADRQWTRFVRGRPRRFTSFDQVAQLSSAARGLAASLLFLLLVKAAQQLRFVRQWSVFGKTLCRALPELLGVTLGLVVLGVAYAQLAILLVSSCVDSLWSVAQALLVLCPGTGLSTLCPAESWHLSPLLCVGLWALRLWGALALGAVILAWRYAALRGELYRPAWEPQDYEMVELFLRRLRLWMGLSKVKEFRHKVRFEGMEPLPSRSSRGSKVSPDVPPPSAGSDASHPSTSSSQLDGLSVSLGRLGTRCEPEPSRLQAVFEALLTQFDRLNQATEDVYQLEQQLHSLQGRRSSRAPAGSSRGPSPGLRPALPSRLARASRGVDLATGPSRTPLRAKNKVHPSST
